Legend:
[1] = tested on: ERK1/2; experiment: MAP kinase (ERK1/2) activation in U937 cells, western blotting; type: cell-based, human; details: 0.5 μg/ml, 10 min, 37° C.
Procedure: U937 cells (αvβ3+, α4β1+) were plated in wells of 96-well plates (10,000 cells/well), and serum-starved for 48 h. After treatment with wt or mutant sPLA2-IIA for 48 h, we measured cell proliferation by MTS assays. […] U937 cells were serum-starved for 24 h, and stimulated with wt and mutant sPLA2-IIA (0.5 μg/ml) for 10 min at 37° C. Cell lysates were analyzed by western blotting with anti-phospho ERK1/2 or anti-ERK1/2 antibodies. The blot is representative of three independent experiments.
(§1) Cell proliferation and MAP kinase activation K562 cells and human monocytic lymphoma U937 cells were maintained in RPM11640 medium supplemented with 10% FCS. Cells were plated in 96-well plates (1×10^4 cells/well), and serum-starved for 48 h at 37° C. in 5% CO2 atmosphere. Cells were then treated with or without sPLA2-IIA in medium without serum for 48 h. Cell proliferation was determined by MTS assays using the Aqueous Cell Proliferation Assay Kit (Promega). For MAP kinase activation assays, cells were serum starved in RPMI1640 medium supplemented with 0.4% FCS for 24 h, and stimulated with Wt and mutant sPLA2-IIA (0.5 μg/ml) for 10 min at 37° C. ERK1/2 activation was measured as described (Mori, S. et al., J Biol Chem, in press (2008)).

[2] = tested on: mock-transfected K562 cells; experiment: Proliferation of mock-transfected K562 cells (MTS assay); type: cell-based, human; details: serum-starved 48 h, stimulated 48 h
Procedure: (§2) Cells were serum-starved for 48 h and stimulated with sPLA2-IIA for 48 h. Cell proliferation was determined by MTS assays. Data is shown as means+/−SEM of triplicate experiments. α4- and αvβ3-K562 cells proliferated faster than mock-K562 cells. […] Serum-starved cells were stimulated with wt or mutant sPLA2-IIA (0.5 μg/ml) for 48 h. Data is shown as means+/−SEM of triplicate experiments. α4-K562 and αvβ3-K562 cells grew faster than mock K562 cells with wt and H47Q sPLA2-IIA (*P<0.05 by t-test).
as §1

[3] = target: T1, soluble integrin αvβ3 (Homo sapiens, UniProt P05106+P06756); experiment: Binding of soluble αvβ3 to immobilized sPLA2-IIA (ELISA-type assay); details: immobilized protein, 20 μg/ml coating
T1 construct: Recombinant soluble αvβ3 was synthesized as previously described; made in house
T1 sequence (P06756 31-992 limits assumed): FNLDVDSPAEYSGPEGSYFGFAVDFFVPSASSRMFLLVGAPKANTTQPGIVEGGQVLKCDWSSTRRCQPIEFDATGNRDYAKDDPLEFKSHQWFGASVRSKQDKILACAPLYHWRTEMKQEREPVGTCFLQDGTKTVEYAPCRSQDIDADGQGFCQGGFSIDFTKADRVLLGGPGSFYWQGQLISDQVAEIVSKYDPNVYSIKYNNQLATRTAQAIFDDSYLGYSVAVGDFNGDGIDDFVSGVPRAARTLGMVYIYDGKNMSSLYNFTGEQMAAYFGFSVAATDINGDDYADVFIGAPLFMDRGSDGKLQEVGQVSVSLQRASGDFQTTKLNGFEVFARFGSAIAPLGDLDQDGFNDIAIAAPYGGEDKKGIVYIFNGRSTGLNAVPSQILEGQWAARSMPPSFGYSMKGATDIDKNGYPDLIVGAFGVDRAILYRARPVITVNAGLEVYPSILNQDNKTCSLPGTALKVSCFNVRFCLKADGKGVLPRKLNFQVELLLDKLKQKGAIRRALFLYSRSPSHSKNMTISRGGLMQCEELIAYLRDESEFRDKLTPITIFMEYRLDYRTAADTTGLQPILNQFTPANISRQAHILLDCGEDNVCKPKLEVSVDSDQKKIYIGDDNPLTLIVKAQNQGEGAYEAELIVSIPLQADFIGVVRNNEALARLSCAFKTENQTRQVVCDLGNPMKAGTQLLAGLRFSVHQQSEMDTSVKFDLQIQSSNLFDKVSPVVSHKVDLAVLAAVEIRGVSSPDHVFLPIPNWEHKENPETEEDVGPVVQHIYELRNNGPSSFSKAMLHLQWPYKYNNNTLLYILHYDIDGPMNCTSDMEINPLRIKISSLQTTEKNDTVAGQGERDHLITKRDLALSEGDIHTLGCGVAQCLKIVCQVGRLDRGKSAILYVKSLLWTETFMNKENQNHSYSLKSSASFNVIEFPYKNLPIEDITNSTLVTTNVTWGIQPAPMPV
T1 sequence (P05106 27-718 limits assumed): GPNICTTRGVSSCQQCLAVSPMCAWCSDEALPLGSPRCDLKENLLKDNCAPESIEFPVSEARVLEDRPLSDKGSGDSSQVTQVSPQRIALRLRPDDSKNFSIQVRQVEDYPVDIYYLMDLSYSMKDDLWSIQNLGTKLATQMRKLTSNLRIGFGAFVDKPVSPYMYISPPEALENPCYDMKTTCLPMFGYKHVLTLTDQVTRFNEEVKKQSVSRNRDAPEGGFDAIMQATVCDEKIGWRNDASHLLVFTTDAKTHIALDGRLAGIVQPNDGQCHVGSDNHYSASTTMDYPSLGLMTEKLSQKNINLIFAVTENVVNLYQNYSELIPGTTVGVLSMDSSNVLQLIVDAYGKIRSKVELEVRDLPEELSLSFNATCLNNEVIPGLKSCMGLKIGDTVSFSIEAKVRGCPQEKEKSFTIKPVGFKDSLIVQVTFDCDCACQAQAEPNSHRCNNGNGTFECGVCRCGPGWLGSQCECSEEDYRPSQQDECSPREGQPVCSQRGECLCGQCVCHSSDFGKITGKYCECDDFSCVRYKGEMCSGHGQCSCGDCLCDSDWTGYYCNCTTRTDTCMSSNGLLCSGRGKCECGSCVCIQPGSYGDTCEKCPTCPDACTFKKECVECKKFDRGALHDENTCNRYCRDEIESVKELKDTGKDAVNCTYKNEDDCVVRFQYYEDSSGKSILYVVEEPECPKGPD
Procedure: Binding of soluble αvβ3 to immobilized sPLA2-IIA sPLA2-IIA was immobilized to wells of 96 well microtiter plates and the remaining protein-binding sites were blocked by BSA as described (Mori, S. et al., J Biol Chem, 283:18066-18075 (2008)). Soluble recombinant αvβ3 at 5 μg/ml in Hepes-Tyrodes buffer supplemented with 1 mM MnCl2 was added to the well and incubated for 2 h. Bound αvβ3 was measured using anti-integrin β3 (mAb AV-10) followed by HRP-conjugated goat anti-mouse IgG and peroxidase substrates.

[4] = target: T2, α4β1 binding to VCAM-1 (Homo sapiens, UniProt P05556+P13612); experiment: Adhesion of U937 cells to VCAM-1 in the presence of sPLA2-IIA; type: cell-based; details: increasing concentrations of sPLA2-IIA, 1 h, 37° C.
T2 construct: integrin α4β1, a major integrin in U937 cells; endogenous in cells; host or cells: U937
T2 sequence (P13612 34-1032): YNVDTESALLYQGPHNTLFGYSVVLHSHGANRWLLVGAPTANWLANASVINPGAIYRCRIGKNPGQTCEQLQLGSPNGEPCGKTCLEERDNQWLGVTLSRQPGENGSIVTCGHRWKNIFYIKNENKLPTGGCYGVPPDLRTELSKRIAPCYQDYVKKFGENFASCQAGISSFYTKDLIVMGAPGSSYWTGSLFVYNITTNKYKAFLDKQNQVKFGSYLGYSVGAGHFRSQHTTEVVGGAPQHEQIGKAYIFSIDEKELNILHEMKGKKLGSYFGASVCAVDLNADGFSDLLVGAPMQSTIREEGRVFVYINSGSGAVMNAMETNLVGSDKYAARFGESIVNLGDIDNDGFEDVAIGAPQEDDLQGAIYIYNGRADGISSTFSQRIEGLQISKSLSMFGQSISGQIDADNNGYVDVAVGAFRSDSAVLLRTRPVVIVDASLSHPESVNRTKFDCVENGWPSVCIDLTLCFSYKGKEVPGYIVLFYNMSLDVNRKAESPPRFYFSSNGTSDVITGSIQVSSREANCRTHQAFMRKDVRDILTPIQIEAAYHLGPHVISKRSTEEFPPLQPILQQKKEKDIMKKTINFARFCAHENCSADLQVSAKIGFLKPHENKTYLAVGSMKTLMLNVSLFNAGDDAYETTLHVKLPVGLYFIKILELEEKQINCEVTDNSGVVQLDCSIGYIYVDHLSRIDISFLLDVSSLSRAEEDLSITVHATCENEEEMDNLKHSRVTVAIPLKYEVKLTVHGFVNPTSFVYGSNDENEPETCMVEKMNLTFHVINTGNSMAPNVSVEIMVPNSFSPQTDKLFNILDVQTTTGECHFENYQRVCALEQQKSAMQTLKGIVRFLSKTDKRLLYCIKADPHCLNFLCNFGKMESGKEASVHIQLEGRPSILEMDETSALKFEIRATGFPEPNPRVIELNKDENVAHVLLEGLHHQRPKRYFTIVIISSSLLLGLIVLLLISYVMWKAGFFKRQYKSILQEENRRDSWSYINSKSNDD
T2 sequence (P05556 21-798): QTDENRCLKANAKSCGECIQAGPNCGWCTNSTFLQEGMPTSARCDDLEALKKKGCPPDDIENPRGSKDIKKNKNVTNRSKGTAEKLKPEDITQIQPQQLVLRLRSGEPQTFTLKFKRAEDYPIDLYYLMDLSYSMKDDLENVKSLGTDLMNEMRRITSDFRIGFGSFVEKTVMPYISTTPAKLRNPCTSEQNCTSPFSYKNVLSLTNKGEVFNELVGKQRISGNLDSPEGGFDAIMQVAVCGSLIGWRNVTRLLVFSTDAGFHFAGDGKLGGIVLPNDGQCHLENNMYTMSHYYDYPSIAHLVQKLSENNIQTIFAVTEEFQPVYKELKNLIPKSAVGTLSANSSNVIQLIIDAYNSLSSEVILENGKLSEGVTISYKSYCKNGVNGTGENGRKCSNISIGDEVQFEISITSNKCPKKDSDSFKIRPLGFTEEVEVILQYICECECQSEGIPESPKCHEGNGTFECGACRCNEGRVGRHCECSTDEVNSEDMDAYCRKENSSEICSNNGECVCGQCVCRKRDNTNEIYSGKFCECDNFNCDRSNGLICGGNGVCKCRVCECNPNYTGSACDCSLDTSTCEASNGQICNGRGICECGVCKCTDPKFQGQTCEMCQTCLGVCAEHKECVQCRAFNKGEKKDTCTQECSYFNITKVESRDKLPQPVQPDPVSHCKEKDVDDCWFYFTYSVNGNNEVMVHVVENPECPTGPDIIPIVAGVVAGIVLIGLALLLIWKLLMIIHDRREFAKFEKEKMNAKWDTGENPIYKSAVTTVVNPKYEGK
Procedure: (§3) FIG. 5. sPLA2-IIA binding to integrin α4β1. a) Cells expressing recombinant α4β1 adhered to wt sPLA2-IIA better than cells expressing other recombinant integrins. We used transfected K562 cells clonally express different human integrins for adhesion assays. Low background adhesion to BSA was subtracted. […] Wells of 96-well microtiter plate were coated with VCAM-1 and FN-GST, and incubated with U937 cells (1×10^4 cells/plate) in the presence of the increasing concentrations of sPLA2-IIA for 1 h at 37° C. Adherent cells were quantified using endogenous phosphatase after gently rinsing the well to remove unbound cells. Data is shown as means+/−SEM of triplicate experiments. *P=0.0101 and **P<0.0001 by t-test. c) Amino acid sequence in the α4 subunit that is critical for VCAM-1 and CS-1 binding is also critical for sPLA2-IIA binding. CHO cells that clonally express wt or mutant α4 (Irie, A. et al., Embo J, 14(22): 5550-5556 (1995)) were used for adhesion assays. Data is shown as means+/−SEM of triplicate experiments. Similar results were obtained using K562 cells expressing α4 mutants (not shown).
(§4) Other methods We performed docking simulation of interaction between sPLA2-IIA and integrin αvβ3 using the AutoDock3 as previously described (Mori, S. et al., J Biol Chem, in press (2008)). […]

[5] = target: T3, integrin αvβ3 (Homo sapiens, UniProt P05106+P06756); experiment: Surface plasmon resonance study of sPLA2-IIA binding to immobilized soluble integrin αvβ3; details: SPR, soluble αvβ3 immobilized on sensor chip, 1 mM Mn2+; listed as human sPLA2-IIA
T3 construct: Recombinant soluble αvβ3 was synthesized as previously described; made in house
T3 sequence (P06756 31-992 limits assumed): as the sequence (P06756 31-992 limits assumed) above
T3 sequence (P05106 27-718 limits assumed): as the sequence (P05106 27-718 limits assumed) above
Procedure: Surface plasmon resonance study Recombinant soluble integrin αvβ3 was immobilized to Biacore Sensor chip CM5 (Biacore, Piscataway, N.J.) by the standard amine coupling method. Two-fold serial diluted sPLA2-IIA and its mutants R74E/R100E (ranging from 2 nM to 500 pM) and H47Q (ranging from 4 nM to 1 nM) in running buffer HBS-P buffer containing 1 mM of Mn^2+ were injected for 3 min at the flow rate of 50 μL/min. Then the sensor chip was washed with the running buffer alone at the same flow rate for another 5 min (the dissociation phase). Two consecutive one-minute injections of 0.5 M, pH 8 EDTA solution at the same flow rate were used to regenerate the chip for another cycle of injection. The resonance unit elicited from the reference flow cell was subtracted from the resonance unit elicited from the integrin flow cell to eliminate the non-specific protein-flow cell interaction and the bulk refractive index effect. The recorded binding curves were fitted with the “1:1 binding with drifting baseline model” by using the Biaevaluation Version 4.1.

[6] = tested on: α4-K562 cells; experiment: Proliferation of α4-K562 cells (MTS assay); type: cell-based, human; details: serum-starved 48 h, stimulated 48 h
Procedure: as §2, §1

[7] = tested on: fibronectin domains 8-11; experiment: Adhesion of U937 cells to the cell-binding domain of fibronectin in the presence of sPLA2-IIA; type: cell-based, human; details: increasing concentrations of sPLA2-IIA, 1 h, 37° C.
Procedure: as §3, §4

[8] = tested on: mutant α4 subunit (Tyr-189 and Gly-190 to Ala); experiment: Adhesion of CHO cells expressing wt or mutant α4 to sPLA2-IIA; type: cell-based
Procedure: as §3, §4

[9] = target: T4, integrin α4β1 (Homo sapiens, UniProt P05556+P13612); experiment: Adhesion of α4-K562 cells (recombinant α4β1) to immobilized sPLA2-IIA; type: cell-based; details: compared with mock-transfected K562 cells
T4 construct: K562 cells have endogenous α5β1; expressed in transfected cells; host or cells: K562
T4 sequence (P13612 34-1032): as the sequence (P13612 34-1032) above
T4 sequence (P05556 21-798): as the sequence (P05556 21-798) above
Procedure: as §3, §4

B1: wt sPLA2-IIA: Secretory phospholipase A2 group IIA, wild type, recombinant from bacteria BL21, refolded (protein)
chain: NLVNFHRMIKLTTGKEAALSYGFYGCHCGVGGRGSPKDATDRCCVTHDCCYKRLEKRGCGTKFLSYKFSNSGSRITCAKQDSCRSQLCECDKAAATCFARNKTTYNKKYQYYSNKHCRGSTPRC
modifications: left off: small tags and cut ends
[1]
  ERK1/2 activation in U937 cells: induced
[2]
  proliferation of mock-transfected K562 cells: did not induce proliferation
[3]
  binding to soluble αvβ3: bound
[4]
  adhesion of U937 cells to VCAM-1: suppressed adhesion
[5]
  Kd: 200 nM
[6]
  proliferation of α4-K562 cells: induced proliferation
[7]
  cell adhesion to fibronectin domains 8-11: did not suppress cell adhesion
[8]
  binding of α4 mutants (Tyr-189 and Gly-190 to Ala) to sPLA2-IIA: blocked binding
[9]
  adhesion of α4-K562 cells to immobilized wt sPLA2-IIA: better than mock-transfected K562 cells

Source: patent publication US20090092595A1, “Suppression of sPLA2-integrin binding for treating an inflammatory condition” (REGENTS OF THE UNIVERSITY OF CALIFORNIA, priority 2007, published 2009)
